Data taken from US20210238276A1 (INTEGRAL MOLECULAR, published 2021).
Numbering of substitutions follows the chain as printed.

Columns and labels:
Assay in all cases: flow cytometry, alanine-scan library in HEK-293T, with cytochalasin B
hsGLUT4 Q298A = biological target: T1, hsGLUT4 Q298A (human, UniProt P14672 1-509)
T1 sequence: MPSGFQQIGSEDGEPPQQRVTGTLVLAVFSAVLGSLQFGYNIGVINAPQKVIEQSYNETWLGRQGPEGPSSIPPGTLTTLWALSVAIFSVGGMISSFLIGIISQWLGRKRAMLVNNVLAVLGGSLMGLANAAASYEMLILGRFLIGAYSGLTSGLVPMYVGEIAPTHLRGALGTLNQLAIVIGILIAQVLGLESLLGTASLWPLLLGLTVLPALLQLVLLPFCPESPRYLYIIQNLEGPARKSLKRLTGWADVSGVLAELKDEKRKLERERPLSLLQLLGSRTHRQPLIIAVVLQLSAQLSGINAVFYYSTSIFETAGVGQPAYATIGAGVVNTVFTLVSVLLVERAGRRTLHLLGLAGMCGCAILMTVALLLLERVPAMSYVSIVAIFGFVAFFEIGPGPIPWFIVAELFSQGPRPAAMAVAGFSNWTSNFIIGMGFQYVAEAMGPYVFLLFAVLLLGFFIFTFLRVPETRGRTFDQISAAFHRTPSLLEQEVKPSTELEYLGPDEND
Method: (§1) Because of the state-dependence of the isolated MAbs, we next wished to understand the mechanism by which each MAb could recognize GLUT4 in its different conformations. The residues required for binding of each MAb were determined using shotgun mutagenesis comprehensive alanine scanning (Davidson E & Doranz B J (2014) A High-Throughput Shotgun Mutagenesis Approach to Mapping B-cell Antibody Epitopes. Immunology, which is hereby incorporated by reference in its entirety). All residues of hsGLUT4 were individually mutated to alanine, with existing alanines changed to serines. Mutations were obtained for 508 of the 509 residues of GLUT4 (excluding the initiating methionine). The entire mutation library was transfected into human HEK-293T cells in a 384-well array format (one clone per well) and assessed for immunoreactivity using high-throughput flow cytometry.
(§2) HEK-293T cells were transfected by CaPO₄ with plasmids in 6-well culture plates (Falcon) at 750,000 cells/well. At 48 hours post transfection, cells were stained with anti-V5 and anti-GLUT4 MAbs (purified scFv, 2 μg/ml) followed by biotinylated goat anti-mouse or human antibody (1:500) and streptavidin-PerCP (1:500). Fluorescence was detected using an Intellicyt high-throughput flow cytometer (HTFC; Intellicyt, Albuquerque, N. Mex.). For cell permeabilization, cells were treated with saponin at 0.1% in PBS for 20 minutes. To discriminate intact (live) and permeabilized (dead) cells without the use of detergent, propidium iodide (PI) was added to HEK-293T cells at 1 ug/ml just prior to flow cytometry. Where indicated, cytochalasin B (Sigma) was used at a final concentration of 10 uM and phloretin (Sigma) was used at a final concentration of 100 uM, each added in 10% NGS for 30 minutes prior to antibody staining as well as included with the primary antibody.

hsGLUT4 Y309A = biological target: T2, hsGLUT4 Y309A (human, UniProt P14672 1-509)
T2 sequence: T1 sequence with A298Q, Y309A
Method: as §1, §2

hsGLUT4 G504A = biological target: T3, hsGLUT4 G504A (human, UniProt P14672 1-509)
T3 sequence: T1 sequence with A298Q, G504A
Method: as §1, §2

hsGLUT4 D506A = biological target: T4, hsGLUT4 D506A (human, UniProt P14672 1-509)
T4 sequence: T1 sequence with A298Q, D506A
Method: as §1, §2

B1: AB102 (Fc fusion)
scFv: ALTQPSSVSANLGGTVKITCSGGGSYGYGWYQQKSPGSAPVTVIYSNDQRPSDIPSRFSGSKSGSTATLTITGVRAEDEAIYYCGSTDSDYVGIFGAGTTLTVLGQSSRSSGGGGSSGGGGSAVTLDESGGGLQTPGGTLSLVCKASGFDFSSYATIWVRQAPGKGLEWVAGISGTGTGSSTGYAPAVKGRATISRDNGQSTVRLQLNNLRAEDTGSYFCAKSTGYGDSWIYPDSIDAWGHGTEVIVSS
notes: also called MAb AB102; not shown: Fc fragment of human IgG1, cloned in frame with the scFv
What does the source list for B1?
% of binding to wild type GLUT4 (hsGLUT4 Q298A): 107%; % of binding to wild type GLUT4 (hsGLUT4 Y309A): 24%; % of binding to wild type GLUT4 (hsGLUT4 G504A): 71%; % of binding to wild type GLUT4 (hsGLUT4 D506A): 60%
